Measurements as given in publication PMC4813677.

Target: pyruvate kinase M2 (PKM2) (human (endogenous in monocytes and macrophages)) (UniProt P14618)
Assay: cross-linking

pyruvate kinase M2 (PKM2), P14618 1-531 (enzyme; other documents disagree on this pair), sequence (P14618 whole entry): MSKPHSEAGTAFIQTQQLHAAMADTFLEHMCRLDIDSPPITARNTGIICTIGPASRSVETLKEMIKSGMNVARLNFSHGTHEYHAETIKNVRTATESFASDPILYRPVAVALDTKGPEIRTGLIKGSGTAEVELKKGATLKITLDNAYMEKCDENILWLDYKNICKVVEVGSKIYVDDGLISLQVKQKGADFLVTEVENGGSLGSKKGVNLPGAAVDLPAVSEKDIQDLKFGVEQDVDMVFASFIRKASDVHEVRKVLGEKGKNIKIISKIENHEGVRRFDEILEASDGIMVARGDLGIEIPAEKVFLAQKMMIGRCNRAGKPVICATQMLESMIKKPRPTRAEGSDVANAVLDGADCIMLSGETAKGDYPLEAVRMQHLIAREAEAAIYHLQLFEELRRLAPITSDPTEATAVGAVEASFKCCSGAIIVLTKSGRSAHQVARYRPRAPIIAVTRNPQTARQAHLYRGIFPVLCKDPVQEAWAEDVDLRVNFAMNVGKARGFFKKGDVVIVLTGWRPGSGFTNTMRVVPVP

stoichiometry N: 2
Substance: pyruvate kinase M2 (PKM2), P14618 1-531 (enzyme; other documents disagree on this pair)
